According to US20240174733A1 (ACCELERON PHARMA, published 2024):

How the values were obtained:
ActRIIA-mFc [1] = biological target: T1, ActRIIA-mFc (human, UniProt P27037 21-135); assay: SPR (Biacore), ligand amine-coupled on CM5 chip, ActRIIA-mFc as analyte
T1 construct: also called RAP-011; sotatercept analog RAP-011; not shown: "minimal linker"; mouse Fc domain
Protocol: GDF11 or activin A were immobilized on a Biacore™ CM5 chip using standard amine-coupling procedure. ActRIIA-hFc and ActRIIA-mFc proteins were loaded onto the system, and binding was measured. […] Using a similar binding assay, ActRIIA-hFc was determined to have high to moderate affinity for other TGF-beta superfamily ligands including, for example, activin B, GDF8, BMP6, and BMP10. ActRIIA-mFc behaved similarly.

ActRIIA-mFc [2] = biological target: T1, ActRIIA-mFc; assay: similar binding assay (Biacore)

T1 sequence (P27037 21-135): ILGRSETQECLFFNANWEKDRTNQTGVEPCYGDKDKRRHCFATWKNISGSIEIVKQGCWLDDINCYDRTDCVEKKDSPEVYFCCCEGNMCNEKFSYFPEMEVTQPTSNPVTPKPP

Row | binding result (ActRIIA-mFc [1]) | binding result (ActRIIA-mFc [2]) | Binder
1 | binds | – | GDF11 (ligand, UniProt O95390 299-407, looked up, Immobilized on a Biacore CM5 chip by amine coupling) NLGLDCDEHSSESRCCRYPLTVDFEAFGWDWIIAPKRYKANYCSGQCEYMFMQKYPHTHLVQQANPRGSAGPCCTPTKMSPINMLYFNDKQQIIYGKIPGMVVDRCGCS
2 | – | binds | BMP10 (ligand, UniProt O95393 317-424, looked up) NAKGNYCKRTPLYIDFKEIGWDSWIIAPPGYEAYECRGVCNYPLAEHLTPTKHAIIQALVHLKNSQKASKACCVPTKLEPISILYLDKGVVTYKFKYEGMAVSECGCR
